This is an account of results in PMC3742741 (PLoS ONE, 2013).

A word on the stoichiometry N: it is a count of units in the complex or per binding partner.

Data set [1] concerns the molecule itself. Description: crystal structure; twinned P3_(2)21 form, selenomethionine labeled protein, crystal grown at 19 °C in 100 mM Na citrate pH 4.2, 33% PEG 400, 200 mM LiSO4.
Data set [2] concerns the target T1, BAP31 full-length C-terminal cytoplasmic region (residues 124-242), untagged (Homo sapiens (Human), UniProt P51572).
T1 chain: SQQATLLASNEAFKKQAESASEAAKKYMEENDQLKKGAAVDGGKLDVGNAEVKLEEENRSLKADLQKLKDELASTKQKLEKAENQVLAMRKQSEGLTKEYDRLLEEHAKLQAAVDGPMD
Description: analytical gel filtration.

Data set [3] has as its target T2, His-tagged full-length C-terminal cytoplasmic domain of BAP31 (residues 124-242) (Homo sapiens (Human), UniProt P51572).
T2 chain: T1 chain
Description: IMAC pull-down.

Another data set deals with P51572. Description: native MS; native ESI MS, 150 mM NH4 acetate pH 7, 1.24 mg/mL further diluted in 15% acetonitrile and 5% 2-propanol, LTQ-Orbitrap Velos.
Data set [4] deals with the molecule itself. Description: SEC; calibrated gel filtration, Superdex 200, 10-400 µM protein, 20 mM Na-P pH 7.0, 150 mM NaCl, 0.1 mM TCEP; Stoke's radius compared with radii of gyration of dimer and tetramer. On the technique in general: SEC sorts molecules by how far they enter the pores of the column.
Data set [5] concerns the molecule itself. Description: CD thermal unfolding against protein concentration; midpoint of thermal unfolding at pH 6.0 with 0.25 µM to 5 µM protein.
In data set [6] the target is T3, His-tagged full-length C-terminal cytoplasmic domain of BAP29 (residues 125-237) (Homo sapiens (Human), UniProt Q9UHQ4).
T3 chain: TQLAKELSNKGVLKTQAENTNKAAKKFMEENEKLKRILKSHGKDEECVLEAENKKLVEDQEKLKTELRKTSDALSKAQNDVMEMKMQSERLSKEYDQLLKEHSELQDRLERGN
Description: IMAC pull-down.

Square brackets hold non-standard residues; d marks the D form. SeMet = C[Se]CC[C@H](N)C(=O)O

B1: Selenomethionine labeled BAP31 vDED (residues 168-233), untagged (domain or fragment, human, UniProt P51572 168-233, looked up)
chain: LDVGNAEVKLEEENRSLKADLQKLKDELASTKQKLEKAENQVLA[SeMet]RKQSEGLTKEYDRLLEEHAKL
notes: BAP31, human, UniProt P51572, vDED domain, residues 168-233; Same construct as m1, with selenomethionine; used for the P3_(2)21 crystal form at pH 4.2 (residues 169-220 modeled); also called BAP31 vDED acidic pH (P3_(2)21 form); source: E. coli BL21(DE3) Rosetta 2 grown in minimal medium, purified as the native protein with 2 mM TCEP; not shown: His6, N-terminal, cleaved
B1: in data set [1], the binding result is recorded as “binds”.

B2: BAP29 full-length C-terminal cytoplasmic region (residues 125-237), untagged (protein)
chain: T3 chain
Consider B2, for which the binding result in data set [2] and in data set [3] was “no binding” each time.

B3: BAP31 vDED (variant of death effector domain of human BAP31, residues 168-233), untagged (domain or fragment, UniProt P51572 168-233, looked up)
chain: LDVGNAEVKLEEENRSLKADLQKLKDELASTKQKLEKAENQVLAMRKQSEGLTKEYDRLLEEHAKL
notes: BAP31, human, UniProt P51572, vDED domain, residues 168-233; Vector pNIC28-Bsa4; also called vDED domain of BAP31; source: E. coli BL21(DE3) Rosetta 2, purified (IMAC, TEV cleavage, reverse IMAC, gel filtration); not shown: His6, N-terminal, cleaved
With B3, in the data set with P51572, the “dimer peak height relative to the monomer peak” value was ≥35% of the monomer peak height. In addition, the “stoichiometry N” value in data set [4] was found to be 2.

B4: BAP31 full-length C-terminal cytoplasmic region (residues 124-242), untagged (domain or fragment, human, UniProt P51572 124-242, looked up)
chain: T1 chain
notes: BAP31, human, UniProt P51572, C-terminal cytoplasmic region, residues 124-242; also called BAP31 Cyt; BAP31 full-length cytoplasmic; source: E. coli BL21(DE3) Rosetta 2, purified (IMAC, TEV cleavage, reverse IMAC, gel filtration); not shown: His6, N-terminal, cleaved
Turning to B4, the binding result is reported as “binds” in data set [5] and “no binding” in data set [6].
